Test results reported in publication PMC10397247.

How the values were obtained:
Test in all cases: two-hybrid library CCNG1;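 note: natural log of median RNA to DNA barcode read ratio; higher means stronger binding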
O4-bH = biological target: T1, O4-bH
T1 chain: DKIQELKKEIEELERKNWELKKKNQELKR

O5-bH = biological target: T2, O5-bH
T2 chain: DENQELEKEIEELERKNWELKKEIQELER

O6-bH = biological target: T3, O6-bH
T3 chain: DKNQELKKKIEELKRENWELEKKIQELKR

O7-bH = biological target: T4, O7-bH
T4 chain: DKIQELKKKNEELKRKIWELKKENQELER

O8-bH = biological target: T5, O8-bH
T5 chain: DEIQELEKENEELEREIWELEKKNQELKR

O9-bH = biological target: T6, O9-bH
T6 chain: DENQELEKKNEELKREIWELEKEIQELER

4H570-bN = biological target: T7, 4H570-bN
T7 chain: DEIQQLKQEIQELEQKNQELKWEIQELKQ

4H584-bN = biological target: T8, 4H584-bN
T8 chain: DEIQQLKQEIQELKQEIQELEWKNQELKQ

4H619-bN = biological target: T9, 4H619-bN
T9 chain: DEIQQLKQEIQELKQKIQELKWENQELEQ

4H850-bN = biological target: T10, 4H850-bN
T10 chain: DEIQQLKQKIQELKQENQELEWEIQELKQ

4H906-bN = biological target: T11, 4H906-bN
T11 chain: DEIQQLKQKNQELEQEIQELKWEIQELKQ

P7A = biological target: T12, P7A
T12 chain: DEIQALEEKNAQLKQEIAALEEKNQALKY

O4-bN = biological target: T13, O4-bN
T13 chain: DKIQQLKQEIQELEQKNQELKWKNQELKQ

O5-bN = biological target: T14, O5-bN
T14 chain: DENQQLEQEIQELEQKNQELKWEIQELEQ

O6-bN = biological target: T15, O6-bN
T15 chain: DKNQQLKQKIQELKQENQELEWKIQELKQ

O7-bN = biological target: T16, O7-bN
T16 chain: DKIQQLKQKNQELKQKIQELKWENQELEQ

O8-bN = biological target: T17, O8-bN
T17 chain: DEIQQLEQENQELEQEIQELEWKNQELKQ

O9-bN = biological target: T18, O9-bN
T18 chain: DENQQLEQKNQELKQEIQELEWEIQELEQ

P8A = biological target: T19, P8A
T19 chain: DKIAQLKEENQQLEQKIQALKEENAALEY

P9A = biological target: T20, P9A
T20 chain: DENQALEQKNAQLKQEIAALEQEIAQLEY

B1: O4-bH (peptide)
chain: DKIQELKKEIEELERKNWELKKKNQELKR
- interaction score (O4-bH): -1.04
- interaction score (O5-bH): -1.47
- interaction score (O6-bH): 0.0257
- interaction score (O7-bH): 0.376
- interaction score (O8-bH): 1.07
- interaction score (O9-bH): -2.1

B2: 4H570-bN (peptide)
chain: DEIQQLKQEIQELEQKNQELKWEIQELKQ
- interaction score (4H570-bN): 0.618
- interaction score (4H584-bN): 0.131
- interaction score (4H619-bN): -1.3
- interaction score (4H850-bN): 1.82
- interaction score (4H906-bN): -1.16
- interaction score (P7A): -1.87

B3: O4-bN (peptide)
chain: DKIQQLKQEIQELEQKNQELKWKNQELKQ
- interaction score (O4-bN): -0.666
- interaction score (O5-bN): -0.492
- interaction score (O6-bN): 0.639
- interaction score (O7-bN): -0.226
- interaction score (O8-bN): -0.553
- interaction score (O9-bN): -0.542

B4: P7A (peptide)
chain: DEIQALEEKNAQLKQEIAALEEKNQALKY
- interaction score (P7A): -0.598
- interaction score (P8A): 2.24
- interaction score (P9A): -0.697
